Assay [1] has as its target T1, human ActRIIB (human, UniProt Q13705 19-137, limits assumed).
T1 construct: antigen in MSD-SET; also called ACVR2B; ActR2B
T1 sequence: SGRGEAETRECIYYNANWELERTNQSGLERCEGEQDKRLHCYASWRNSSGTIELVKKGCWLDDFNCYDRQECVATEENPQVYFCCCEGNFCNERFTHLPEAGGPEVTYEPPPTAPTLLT
The experiment in a line: MSD-SET; human ActRIIB; full-length IgG (Table 4B).

Assay [2] has as its target T2, ActRIIA and ActRIIB (on TGFB/SMAD SBE Reporter HEK293 cells) (human). The experiment in a line: cell-based or functional assay.
The target in assay [3] is T3, human ActRIIA (human, UniProt P27037 20-135, limits assumed).
T3 construct: antigen in MSD-SET; also called ACVR2A; ActR2A
T3 sequence (P27037 20-135 limits assumed): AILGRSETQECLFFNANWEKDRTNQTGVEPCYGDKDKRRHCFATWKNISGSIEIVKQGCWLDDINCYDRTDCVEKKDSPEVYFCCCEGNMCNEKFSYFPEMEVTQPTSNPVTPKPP
The assay is described as follows: MSD-SET.

In assay [4] the target is T1, human ActRIIB. The assay is described as follows: MSD-SET; human ActRIIB; full antibody, separate cross-reactivity study (Table 6A).
Assay [5] has as its target T2, ActRIIA and ActRIIB (on TGFB/SMAD SBE …). The experiment in a line: cell-based or functional assay. The source holds these as a separate data set.
The target of assay [6] is T3, human ActRIIA. The experiment in a line: MSD-SET. The source holds these as a separate data set.
Assay [7] concerns the target T3, human ActRIIA. The assay is described as follows: MSD-SET. The source holds these as a separate data set.
The target of assay [8] is T2, ActRIIA and ActRIIB (on TGFB/SMAD SBE …). The assay is described as follows: cell-based or functional assay. The source holds these as a separate data set.
Assay [9] shares this target.
Assay [10] concerns the target T3, human ActRIIA. The experiment in a line: MSD-SET. This is another data set of the same source.
Assay [11] has as its target T2, ActRIIA and ActRIIB (on TGFB/SMAD SBE …). The source holds these as a separate data set.
Assay [12] has as its target T1, human ActRIIB. The assay is described as follows: MSD-SET; Fab, not IgG.
Assay [13] deals with T1, human ActRIIB. The experiment in a line: MSD-SET.
Assay [14] has as its target T1, human ActRIIB. The experiment in a line: MSD-SET, preliminary.
Assay [15] addresses Dog ActRIIA (dog, UniProt A0A8I3MYH0 20-135). The experiment in a line: MSD-SET.
Assay [16] has as its target Pig ActRIIA (pig, UniProt F1S0H6 20-135). The assay is described as follows: MSD-SET.
Assay [17] deals with T1, human ActRIIB. The assay is described as follows: MSD-SET. The source holds these as a separate data set.
Assay [18] deals with mouse ActRIIA (mouse, UniProt P27038 20-135, limits assumed). The experiment in a line: MSD-SET.
Sequence of mouse ActRIIA (P27038 20-135 limits assumed): as the sequence (P27037 20-135 limits assumed) above, with K20R, V73I counted along it
In assay [19] the target is T1, human ActRIIB. The experiment in a line: MSD-SET, Fab KD over IgG KD.

Read-outs that look alike come from different tables or passages of the source.

B1: Antibody Wurschdsalat (antibody, V domains shown)
VH: QVQLVQSGAEVKKPGASVKVSCKASGYTFTSSYINWVRQAPGQGLEWMGTINAVSGSTSYAQKFQGRVTMTRDESISTAYMELSRLRSDDTAVYYCARGGWFDYWGQGTLVTVSS
VL: QSALTQPASVSGSPGQSITISCTGTSSDVGSYNYVNWYQQHPGKAPKLMIYGVSKRESGVSNRFSGSKSGNTASLTISGLQAEDEADYYCGTFAGGKYYGVFGGGTKLTVL
notes: full-length IgG
Take B1: the Kd in assay [1] is 0.006 nM; in [3], 0.0218 nM; in assay [4], 0.0044 nM; in assay [6], 0.005 nM; in assay [7], 0.005 nM. In addition, the IC50, Activin SMAD RGA in [2] was determined as 0.29 nM; in assay [5] it was 0.266 nM. Besides, the IC50, Myostatin SMAD RGA in assay [2] was found to be 0.33 nM; in assay [5], 0.4 nM. In addition, the IC90, Activin SMAD RGA in assay [5] was 1.9 nM. The molecule further yielded an IC90, Myostatin SMAD RGA in assay [5] of 3.89 nM.

B2: Antibody Hefaknöpfla (antibody, V domains shown)
VH: QVQLVQSGAEVKKPGASVKVSCKASGYTFTSSYINWVRQAPGQGLEWMGTINAVSGSTSYAQKFQGRVTMTRDTSISTAYMELSRLRSDDTAVYYCARGGWFDYWGQGTLVTVSS
VL: QSALTQPASVSGSPGQSITISCTGTSSDVGSKNYVNWYQQHPGKAPKLMIYGVSKRESGVSNRFSGSKSGNTASLTISGLQAEDEADYYCGTFAGGKYYGVFGGGTKLTVL
notes: full-length IgG
In the case of B2, the Kd was 0.005 nM in assay [1]; 0.0123 nM in assay [3]; 0.0043 nM in assay [4]; 0.015 nM in [6]; 0.015 nM in [10]; 0.015 nM in [7]. Moreover, the IC50 [nM] (assay not given) in assay [8] came to 0.011 nM. The molecule further yielded an IC50 fold difference to bimagrumab (assay not given) in [8] of 27 fold. In [8], this molecule returned an IC90 [nM] (assay not given) of 1.6 nM. Also, the IC90 fold difference to bimagrumab (assay not given) in [8] came out at 4.11 fold. The figures for the IC50, Activin SMAD RGA in assay [2] and in [5] were 0.13 nM and 0.139 nM, respectively. Besides, the IC50, Myostatin SMAD RGA in assay [2] was 0.26 nM; in assay [5], 0.211 nM. In assay [9], the IC50 (read off the curve); Myostatin-stimulated SMAD reporter gene assay turned out to be 0.3 nM. Besides, in assay [5], the IC90, Activin SMAD RGA came out at 2.16 nM. The molecule also registered an IC90, Myostatin SMAD RGA in assay [5] of 5.37 nM. Besides, in assay [11], the IC50 (read off the curve); Activin-stimulated SMAD reporter gene assay worked out at 0.2 nM.

B3: Duuranad Fab (Fab, V domains shown)
VH: QVQLVQSGAEVKKPGASVKVSCKASGYTFTSSYINWVRQAPGQGLEWMGTINAVSGSTSYAQKFQGRVTMTRDTSISTAYMELSRLRSDDTAVYYCARGGWFDYWGQGTLVTVSS
VL: QSALTQPASVSGSPGQSITISCTGTSSDVGSFNYVNWYQQHPGKAPKLMIRGVSKRESGVSNRFSGSKSGNTASLTISGLQAEDEADYYCGTFAGGAYYGVFGGGTKLTVL
notes: Fab
With B3, in assay [2], the IC50, Activin SMAD RGA was found to be 6.19 nM; the IC50, Myostatin SMAD RGA was 7.85 nM; the IC50 fold difference (Fab:IgG), Activin SMAD RGA came out at 20.5 fold; the IC50 fold difference (Fab:IgG), Myostatin SMAD RGA amounted to 20.2 fold. In addition, the Kd in assay [6] amounted to 0.047 nM. Also, the affinity in assay [12], expressed as Kd, was 0.36 nM.

B4: Antibody Duuranad (antibody, V domains shown)
VH: QVQLVQSGAEVKKPGASVKVSCKASGYTFTSSYINWVRQAPGQGLEWMGTINAVSGSTSYAQKFQGRVTMTRDTSISTAYMELSRLRSDDTAVYYCARGGWFDYWGQGTLVTVSS
VL: QSALTQPASVSGSPGQSITISCTGTSSDVGSFNYVNWYQQHPGKAPKLMIRGVSKRESGVSNRFSGSKSGNTASLTISGLQAEDEADYYCGTFAGGAYYGVFGGGTKLTVL
notes: full-length IgG
Take B4: the Kd was 0.005 nM in [1]; 0.0212 nM in assay [3]; 0.0054 nM in [4]; 0.009 nM in assay [6]; 0.009 nM in assay [7]. Further, the IC50, Activin SMAD RGA in assay [2] is 0.3 nM; in assay [5], 0.272 nM. For the same molecule, the values for the IC50, Myostatin SMAD RGA in [2] and in [5] were 0.39 nM and 0.432 nM, respectively. The same molecule returned an IC90, Activin SMAD RGA in assay [5] of 2.22 nM. For the same molecule, in [5], the IC90, Myostatin SMAD RGA is 4.45 nM.

B5: Wurschdsalat Fab (Fab, V domains shown)
VH: QVQLVQSGAEVKKPGASVKVSCKASGYTFTSSYINWVRQAPGQGLEWMGTINAVSGSTSYAQKFQGRVTMTRDESISTAYMELSRLRSDDTAVYYCARGGWFDYWGQGTLVTVSS
VL: QSALTQPASVSGSPGQSITISCTGTSSDVGSYNYVNWYQQHPGKAPKLMIYGVSKRESGVSNRFSGSKSGNTASLTISGLQAEDEADYYCGTFAGGKYYGVFGGGTKLTVL
notes: Fab
In assay [2], B5 registered an IC50, Activin SMAD RGA of 9.9 nM; an IC50, Myostatin SMAD RGA of 13.4 nM; an IC50 fold difference (Fab:IgG), Activin SMAD RGA of 33.8 fold; an IC50 fold difference (Fab:IgG), Myostatin SMAD RGA of 40.7 fold. Besides, the Kd in [6] turned out to be 0.125 nM. This molecule also gave a Kd in assay [12] of 0.823 nM.

B6: Schwardamaga Fab (Fab, V domains shown)
VH: QVQLVQSGAEVKKPGSSVKVSCKASGYTFTSSYINWVRQAPGQGLEWMGTINAVSGSTSYAQKFQGRVTITADTSTSTAYMELSSLRSEDTAVYYCARGGWFDYWGQGTLVTVSS
VL: QSALTQPRSVSGSPGQSVTISCTGTSSDVGSANYVNWYQQHPGKAPKPMIYGVSRRPSGVPDRFSGSKSGNTASLTISGLQAEDEADYYCGTFAGGKYYGVFGGGTKLTVL
notes: Fab
Consider B6, for which the Kd came out at 0.0138 nM in assay [13]; 0.0726 nM in [14]; 0.044 nM in [15]; 0.029 nM in assay [16]; 0.01 nM in assay [17]; 0.039 nM in assay [18].

B7: Bimagrumab Fab (Fab, V domains shown)
VH: QVQLVQSGAEVKKPGASVKVSCKASGYTFTSSYINWVRQAPGQGLEWMGTINPVSGSTSYAQKFQGRVTMTRDTSISTAYMELSRLRSDDTAVYYCARGGWFDYWGQGTLVTVSS
VL: QSALTQPASVSGSPGQSITISCTGTSSDVGSYNYVNWYQQHPGKAPKLMIYGVSKRPSGVSNRFSGSKSGNTASLTISGLQAEDEADYYCGTFAGGSYYGVFGGGTKLTVL
notes: Fab
As to B7, the IC50, Activin SMAD RGA in [2] worked out at 4.39 nM. In assay [2], the IC50, Myostatin SMAD RGA came out at 6.87 nM. Further, the Kd in [15] stood at 0.354 nM; in assay [16], 0.188 nM; in assay [18] it was 0.239 nM.

B8: Riaba Fab (Fab, V domains shown)
VH: QVQLVQSGAEVKKPGASVKVSCKASGYTFTSSYINWVRQAPGQGLEWMGTINAVSGSTSYAQKFQGRVTMTRDTSISTAYMELSRLRSDDTAVYYCARGGWFDYWGQGTLVTVSS
VL: QSALTQPASVSGSPGQSITISCTGTSSDVGSYNYVNWYQQHPGKAPKLMIYGVSKRDSGVSNRFSGSKSGNTASLTISGLQAEDEADYYCGTFAGGKYYGVFGGGTKLTVL
notes: Fab
B8: in [2], the IC50, Activin SMAD RGA came to 27.9 nM; the IC50, Myostatin SMAD RGA turned out to be 64.6 nM; the IC50 fold difference (Fab:IgG), Activin SMAD RGA came to 196 fold; the IC50 fold difference (Fab:IgG), Myostatin SMAD RGA came out at 199 fold. The “Fold difference (Fab:IgG)” value in assay [19] came out at 369 fold. In [12], the Kd was determined as 1.57 nM.

B9: Soidawürstle Fab (Fab, V domains shown)
VH: QVQLVQSGAEVRKPGSSVKVSCKASGYTFTSSYINWVRQAPGQGLEWMGTINPVSGSTSYAQKFQGRVTITADTSTSTAYMELSSLRSEDTAVYYCARGGWFDYWGQGTLVTVSS
VL: QSALTQPRSVSGSPGQSVTISCTGTSSDVGSYNRVNWYQQHPGKAPKLMIYGVSKRESGVPDRFSGSKSGNTASLTISGLQAEDEADYYCGTFAGGRYYGVFGGGTKLTVL
notes: Fab; also called Soidawüsrstel (Fab)
Consider B9, for which the Kd was 0.0026 nM in assay [13]; 0.0197 nM in assay [14]; 0.028 nM in assay [15]; 0.022 nM in assay [16]; 0.011 nM in assay [17]; 0.04 nM in assay [18].
